Results on five molecules are retold here after patent US20230212549A1 (3B PHARMACEUTICALS, published 2023).

Numbered stars: 1 amine (or outer) side, 2 acyl side, 3 side chain; on linkers, the order of the positions; unused ones are H or OH. Bridge positions count the residues as written; N and C are the ends. Square brackets hold non-standard residues; d marks the D form. Primed or numbered codes have the meaning given here. * marks the point of attachment. Ttds = 1,13-diamino-4,7,10-trioxatridecan-succinamic acid, O=C(CCC(=O)[*:2])NCCCOCCOCCOCCCN[*:1]; 3MeBn = 3-Methylbenzylidene (m-xylylene thioether bridge from α,α′-dibromo-m-xylene); Ttds(4) = spacer between chelator and peptide, O=C(CCC(=O)[*:2])NCCCOCCOCCOCCCN[*:1]; N4Ac = 6-Carboxy-1,4,8,11-tetraazaundecane, an N4-chelator, NCCNCC(CNCCN)C(=O)*; DOTA = O=C(O)CN1CCN(CC(=O)O)CCN(CC(=O)*)CCN(CC(=O)O)CC1; 3Lut = 3,5-lutidylidene (derived from 3,5-lutidine); mXylylene = c1cc(C[*:1])cc(C[*:2])c1; PPAc = 4-Carboxymethyl piperazine; Nle = CCCC[C@H](N)C(=O)O; PEG6′ = not defined here; βAla = NCCC(=O)O

The target of assay [1] is T1, Recombinant human FAP (R&D systems, #3715-SE) (human, UniProt Q12884 26-760).
T1 construct: bought; in SPR captured on immobilized anti-FAP antibody MAB3715; also called rhFAP; human recombinant FAP
Briefly: SPR (Biacore T200), FAP captured on anti-FAP antibody, single cycle kinetics; B = pKD 7.1 to 8.0.

Assay [2] concerns the target Recombinant human DPP4 (R&D systems, #9168-SE) (human, UniProt P27487 29-766). Briefly: cell-based or functional assay.
Assay [3] concerns the target T2, recombinant human PREP (R&D systems, #4308-SE) (human, UniProt P48147 1-710).
T2 sequence: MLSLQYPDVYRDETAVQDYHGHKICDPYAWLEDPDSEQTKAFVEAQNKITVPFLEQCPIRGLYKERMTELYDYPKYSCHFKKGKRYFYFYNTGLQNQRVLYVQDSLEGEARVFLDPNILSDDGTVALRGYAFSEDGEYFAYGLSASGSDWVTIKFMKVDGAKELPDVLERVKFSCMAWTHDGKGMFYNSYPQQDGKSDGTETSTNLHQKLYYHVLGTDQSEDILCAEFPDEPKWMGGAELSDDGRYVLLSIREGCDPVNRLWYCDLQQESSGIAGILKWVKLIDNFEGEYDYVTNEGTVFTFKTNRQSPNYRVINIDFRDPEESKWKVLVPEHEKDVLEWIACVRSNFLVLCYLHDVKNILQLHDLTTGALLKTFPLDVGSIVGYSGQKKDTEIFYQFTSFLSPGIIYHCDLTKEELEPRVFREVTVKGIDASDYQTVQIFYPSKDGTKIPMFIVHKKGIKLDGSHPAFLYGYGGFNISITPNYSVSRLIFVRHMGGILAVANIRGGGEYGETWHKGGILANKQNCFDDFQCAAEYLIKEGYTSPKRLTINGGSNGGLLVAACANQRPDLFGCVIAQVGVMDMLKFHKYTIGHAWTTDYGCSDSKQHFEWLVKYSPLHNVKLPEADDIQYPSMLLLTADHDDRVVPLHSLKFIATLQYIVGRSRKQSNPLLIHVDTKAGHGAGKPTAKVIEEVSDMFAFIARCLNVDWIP
In words: cell-based or functional assay.

Assay [4] addresses T3, human fibroblast activating protein (FAP) on WI-38 fibroblasts (human, UniProt Q12884 1-760).
T3 construct: FAP-expressing human WI-38 fibroblasts (ECACC)
Briefly: competitive FACS on WI-38 cells vs 3 nM Cy5-labeled peptide; pIC50 category C = 6.1-7.0.

Assay [5] deals with T4, Human recombinant FAP captured on anti-FAP antibody (SPR) (human, UniProt Q12884 26-760).
T4 construct: whole entry of human FAP named; also called rhFAP
In words: SPR (Biacore), rhFAP captured by anti-FAP antibody; pKD category B = 7.1-8.0. Background: Surface plasmon resonance follows binding to a sensor surface in real time, without labels.

The target in assay [6] is T3, human fibroblast activating protein …. Briefly: competitive FACS on WI-38 cells vs 3 nM Cy5-labeled peptide; pIC50 category B = 7.1-8.0.
The target in assay [7] is T4, Human recombinant FAP captured on …. Briefly: SPR (Biacore), rhFAP captured by anti-FAP antibody; pKD category A = >8.0.
Assay [8] addresses T3, human fibroblast activating protein …. In words: competitive FACS on WI-38 cells vs 3 nM Cy5-labeled peptide; pIC50 category A = >8.0.

Chain of Recombinant human DPP4 (R&D systems, #9168-SE) (P27487 29-766 limits assumed): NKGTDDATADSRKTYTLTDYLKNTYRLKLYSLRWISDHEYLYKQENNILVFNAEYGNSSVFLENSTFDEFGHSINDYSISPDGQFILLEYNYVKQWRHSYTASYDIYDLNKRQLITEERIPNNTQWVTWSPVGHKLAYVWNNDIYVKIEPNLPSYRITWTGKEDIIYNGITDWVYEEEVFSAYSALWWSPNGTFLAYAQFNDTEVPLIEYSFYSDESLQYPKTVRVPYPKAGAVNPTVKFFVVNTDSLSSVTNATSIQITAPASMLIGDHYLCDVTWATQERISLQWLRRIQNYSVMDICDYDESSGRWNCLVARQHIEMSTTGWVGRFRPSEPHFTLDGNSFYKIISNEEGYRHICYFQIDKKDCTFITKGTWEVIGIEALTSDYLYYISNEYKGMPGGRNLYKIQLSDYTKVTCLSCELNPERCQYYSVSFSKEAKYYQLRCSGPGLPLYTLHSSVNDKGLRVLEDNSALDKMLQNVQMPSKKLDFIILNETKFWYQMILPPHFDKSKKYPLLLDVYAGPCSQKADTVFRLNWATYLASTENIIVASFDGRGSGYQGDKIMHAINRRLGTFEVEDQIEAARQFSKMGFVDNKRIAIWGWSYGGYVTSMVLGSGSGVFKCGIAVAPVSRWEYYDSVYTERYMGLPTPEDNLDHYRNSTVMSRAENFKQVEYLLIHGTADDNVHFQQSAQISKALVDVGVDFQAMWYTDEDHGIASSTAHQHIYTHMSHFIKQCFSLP

B1: DOTA-Ttds-Nle-[Cys(3MeBn)-Pro-Pro-Thr-Glu-Phe-Cys]-NH2 (peptide)
peptide: {DOTA}-[Ttds][Nle]CPPTEFC-NH2
modifications: linker 3-9 via mXylylene
SMILES: CCCC[C@H](NC(=O)CCC(=O)NCCCOCCOCCOCCCNC(=O)CN1CCN(CC(=O)O)CCN(CC(=O)O)CCN(CC(=O)O)CC1)C(=O)N[C@H]1CSCc2cccc(c2)CSC[C@@H](C(N)=O)NC(=O)[C@H](Cc2ccccc2)NC(=O)[C@H](CCC(=O)O)NC(=O)[C@H]([C@@H](C)O)NC(=O)[C@@H]2CCCN2C(=O)[C@@H]2CCCN2C1=O
notes: also called 3BP-3319
On to B1, for which the pKD in assay [1] is 7.1 to 8 pkd. Besides, in assay [2], the “pIC50 (DPP4)” value is less than 6 pIC50. For the same molecule, the “pIC50 (PREP)” value in assay [3] stood at 6.2 pIC50.

{N4Ac-PEG6′-βAla}-[Nle]CPPTEFC-OH (linker 2-8 via 3MeBn, also called 3BP-4779) [N4Ac-PEG6-Bal-Nle-[C(3MeBn)-PPTEFC]-OH] showed a pIC50 in assay [4] of 6.1 to 7 pic50.

For the molecule {N4Ac-PPAc-Ttds(4)}-[Nle]CPPTEFC-OH (linker 2-8 via 3Lut, also called 3BP-4775) [N4Ac-PPAc-Ttds-Nle-[C(3Lut)-PPTEFC]-OH], the pKD in assay [5] lay within 7.1 to 8 pkd. The molecule further gave a pIC50 in assay [6] of 7.1 to 8 pic50.

Regarding {N4Ac-PEG6′}-[Nle]CPPTEFC-OH (linker 2-8 via 3Lut, also called 3BP-4773) [N4Ac-PEG6-Nle-[C(3Lut)-PPTEFC]-OH], the pKD in assay [5] lay in the range of 7.1 to 8 pkd. The molecule also yielded a pIC50 in assay [6] of 7.1 to 8 pic50.

As for {N4Ac-PPAc-Ttds(4)}-[Nle]CPPTEFC[βAla]-OH (linker 2-8 via 3MeBn, also called 3BP-4784) [N4Ac-PPAc-Ttds-Nle-[C(3MeBn)-PPTEFC]-Bal-OH], the pKD in assay [7] is greater than 8 pkd. Further, in assay [8], the pIC50 is greater than 8 pic50.
